{"source": "patent US20050042747A1", "about": "“Hivgp120-induced bob/gpr15 activation” (priority 2001, published 2005)", "key": {"[1]": {"molecular_target": "GPR15/Bob (human) (UniProt P49685)", "sequence (P49685 whole entry)": "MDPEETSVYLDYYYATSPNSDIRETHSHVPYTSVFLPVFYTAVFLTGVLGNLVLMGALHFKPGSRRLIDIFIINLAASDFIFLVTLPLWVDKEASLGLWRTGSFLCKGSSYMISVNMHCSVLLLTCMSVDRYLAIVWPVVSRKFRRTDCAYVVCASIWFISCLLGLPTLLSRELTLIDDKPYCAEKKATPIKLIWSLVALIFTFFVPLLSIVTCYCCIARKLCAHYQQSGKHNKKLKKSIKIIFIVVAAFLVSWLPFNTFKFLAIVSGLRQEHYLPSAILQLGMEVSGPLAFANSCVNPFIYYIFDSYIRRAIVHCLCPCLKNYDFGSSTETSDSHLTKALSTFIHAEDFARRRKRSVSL", "test": "cell-based or functional assay"}, "[2]": {"molecular_target": "CXCR4 (UniProt P61073)", "test": "quantitative cellular enzyme-linked assay on HT-29-D4 cells"}, "[3]": {"molecular_target": "CCR5 (UniProt P51681)", "test": "cell-based or functional assay"}}}
{"substance": "gp120(IIIB), purified from HIV-1(IIIB) (from UniProt P03375 33-511) (ligand)", "values": [{"measurement": "relative TEER 20 min after the addition of gp120, HT-29-D4 cells (relative TEER)", "setting": "[1]", "value": 1.6}]}
{"substance": "gp120MN (from UniProt P05877 32-513) (ligand)", "values": [{"measurement": "calcium signaling in HT-29 cells", "setting": "[1]", "value": "> 10", "unit": "nM"}]}
{"substance": "anti-CXCR4 mouse monoclonal antibody (clone 12G5)", "values": [{"measurement": "concentration giving saturation binding", "setting": "[2]", "value": 20, "unit": "µg/mL"}]}
{"substance": "gp120CM235 (ligand)", "values": [{"measurement": "least gp120 concentration inducing calcium signaling, Bob-transfected Ghost (3) cells", "setting": "[1]", "value": 8, "unit": "pM"}, {"measurement": "minimal concentration causing calcium signaling in HT-29 cells", "setting": "[1]", "value": 2.5, "unit": "nM"}, {"measurement": "minimal gp120 concentration giving a calcium flux, transfected Ghost (3) cells", "setting": "[1]", "value": 10, "unit": "pM"}]}
{"substance": "gp12093TH975 (ligand)", "values": [{"measurement": "calcium signaling in HT-29 cells", "setting": "[1]", "value": "> 10", "unit": "nM"}, {"measurement": "minimal gp120 concentration giving a calcium flux, transfected Ghost (3) cells", "setting": "[3]", "value": 100, "unit": "nM"}]}
{"substance": "gp120SF2 (from UniProt P03378 32-509) (ligand)", "values": [{"measurement": "calcium signaling in HT-29 cells", "setting": "[1]", "value": "> 10", "unit": "nM"}]}
{"substance": "gp120(SEN) (ligand)", "values": [{"measurement": "relative TEER 20 min after the addition of gp120, HT-29-D4 cells (relative TEER)", "setting": "[1]", "value": 2.52}]}
